Assay results taken from US20210102192A1 (TWIST BIOSCIENCE, published 2021).

Target: T1, Prostaglandin D2 receptor 2 (CRTH2R) (UniProt Q9Y5Y4 1-395)
T1 chain: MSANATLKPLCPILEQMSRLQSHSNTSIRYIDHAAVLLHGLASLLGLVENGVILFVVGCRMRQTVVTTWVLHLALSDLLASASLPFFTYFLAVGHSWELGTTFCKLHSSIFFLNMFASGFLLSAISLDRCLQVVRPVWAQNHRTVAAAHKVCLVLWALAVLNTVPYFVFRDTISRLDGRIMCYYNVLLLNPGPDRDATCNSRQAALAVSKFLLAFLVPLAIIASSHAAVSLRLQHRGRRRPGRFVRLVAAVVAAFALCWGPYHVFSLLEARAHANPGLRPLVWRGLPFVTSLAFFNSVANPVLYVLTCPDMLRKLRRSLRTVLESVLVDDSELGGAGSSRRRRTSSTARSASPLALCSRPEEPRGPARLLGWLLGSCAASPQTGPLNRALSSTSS
Assay: FACS binding; CRTH2R-positive cells

B1: CRTH2-41-51 (Fc fusion)
chain: EVQLVESGGGLVQPGGSLRLSCAASGGIFRFNAMGWFRQAPGKERELVAGISGSGGDTYYADSVKGRFTISADNSKNTAYLQMNSLKPEDTAVYYCAAFRGIMRPDWGQGTLVTVSS
  EC50: 0.181 nM
